Experimental data from paper PMC4733052, “Heart of glass anchors Rasip1 at endothelial cell-cell junctions to support vascular integrity” (eLife, 2016).

B2: recombinant Rasip1 RA domain (residues 134-285) (domain or fragment, human, UniProt Q5U651 134-285, looked up)
chain: EPPLATRATAPPGVLKIFGAGLASGANYKSVLATARSTARELVAEALERYGLAGSPGGGPGESSCVDAFALCDALGRPAAAGVGSGEWRAEHLRVLGDSERPLLVQELWRARPGWARRFELRGREEARRLEQEAFGAADSEGTGAPSWRPQK
notes: Rasip1, human, Ras-association (RA) domain residues 134-285; Cloned into pETM-11; also called Rasip1 RA domain wild-type; Rasip1 wild-type
B4: human Rap1 isoform Rap1B (residues 1–167), GMP-PNP-bound (natural protein, UniProt P61224 1-167, looked up)
chain: MREYKLVVLGSGGVGKSALTVQFVQGIFVEKYDPTIEDSYRKQVEVDAQQCMLEILDTAGTEQFTAMRDLYMKNGQGFALVYSITAQSTFNDLQDLREQILRVKDTDDVPMILVGNKCDLEDERVVGKEQGQNLARQWNNCAFLESSAKSKINVNEIFYDLVRQINR
notes: Rap1B, human, residues 1-167; Loaded with GMP-PNP; expression and purification as in Gingras et al., 2013; source: Escherichia coli strain CK600K (pTAC vector), purified, nucleotide exchanged for GMP-PNP

What was measured:
[1] = biological target: T1, αIIb integrin cytoplasmic tail (Homo sapiens (Human), UniProt P08514, biotin on the in vivo biotinylation peptide tag); experiment: pull-down (NeutrAvidin bead-immobilised tail peptide, Coomassie-stained SDS-PAGE)
T1 chain: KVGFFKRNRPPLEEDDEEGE

[2] = biological target: B4; experiment: ITC; VP-ITC at 25°C; 335 μM GMP-PNP-bound Rap1B from the syringe into 30 μM Rasip1 RA domain (monomer concentration) in the cell; 20 mM Sodium Phosphate, 200 mM NaCl, 3 mM MgCl2, pH 6.5, 0.1 mM GMP-PNP; single-site fit; conditions: both partners purified
[3] = biological target: the molecule itself; experiment: SEC; Rasip1 RA domain alone (50 μM) on Superdex-75 (10/300); apparent mass against calculated monomer mass 16.3 kDa
[4] = biological target: B2; experiment: ITC; VP-ITC at 25°C; 335 μM GMP-PNP-bound Rap1B from the syringe into 30 μM Rasip1 RA domain (monomer concentration) in the cell; 20 mM Sodium Phosphate, 200 mM NaCl, 3 mM MgCl2, pH 6.5, 0.1 mM GMP-PNP; single-site fit; conditions: both partners purified

B1: recombinant His-MBP-fusion Rasip1 central domain (residues 266-550) (protein)
chain: EAFGAADSEGTGAPSWRPQKNRSRAASGGAALASPGPGTGSGAPAGSGGKERSENLSLRRSVSELSLQGRRRRQQERRQQALSMAPGAADAQIGTADPGDFDQLTQCLIQAPSNRPYFLLLQGYQDAQDFVVYVMTREQHVFGRGGNSSGRGGSPAPYVDTFLNAPDILPRHCTVRAGPEHPAMVRPSRGAPVTHNGCLLLREAELHPGDLLGLGEHFLFMYKDPRTGGSGPARPPWLPARPGATPPGPGWAFSCRLCGRGLQERGEALAAYLDGREPVLRFRPR
[1]
  binding result: no binding

## B2
[2]
  Kd: 770 ± 90 nM
[3]
  stoichiometry N: 2

B3: recombinant Rasip1 RA domain (residues 134-285) R182E (domain or fragment, human, UniProt Q5U651 134-285, looked up)
chain: EPPLATRATAPPGVLKIFGAGLASGANYKSVLATARSTARELVAEALEEYGLAGSPGGGPGESSCVDAFALCDALGRPAAAGVGSGEWRAEHLRVLGDSERPLLVQELWRARPGWARRFELRGREEARRLEQEAFGAADSEGTGAPSWRPQK
notes: Rasip1, human, RA domain residues 134-285 with R182E; also called Rasip1(R182E); Rasip1 RA domain (R182E)
[3]
  binding result: binds

## B4
[4]
  stoichiometry N: 2 Rap1 monomers per Rasip1 dimer
